Measured values as given in PMC2760858.
One block for each substance: values may come before it.

Assays:
[1] = molecular target: hERK1-GFP (human) (UniProt P27361); test: FRET or BRET; acceptor photobleaching FRET in fixed HeLa cells transfected with hERK1-GFP; partner labelled with primary antibody and Cy3-conjugated secondary antibody; GFP/Cy3 pair
[2] = molecular target: endogenous phospho-ERK1/2 (human (endogenous in HeLa)) (UniProt P27361); test: FRET or BRET; acceptor photobleaching FRET in fixed untransfected HeLa cells; endogenous phospho-ERK1/2 and partner labelled with primary antibodies and Cy3- or Cy5-conjugated secondary antibodies; Cy3/Cy5 pair
[3] = molecular target: GST-hERK1 recombinant protein (human) (UniProt P27361); test: non-reducing SDS-PAGE after pull-down, band identified by MALDI-TOF-MS; GST-hERK1 on GSH-agarose incubated with HeLa mitochondrial extract, high stringency; electrophoresis in the absence of β-ME or DTT; band of MW ~130

FRET efficiency (nuclei) [1]: 0.2
Substance: Histone H4 (from UniProt P62805 1-103) (natural protein)

mean FRET efficiency [2]: 0.17
FRET efficiency (nuclei) [1]: 0.3
Substance: Histone H2A (from UniProt P0C0S8 1-130) (natural protein)

mean FRET efficiency (cytoplasm) [1]: 0.3
Substance: Porin 31HL (VDAC1), voltage-dependent anion channel 1 (from UniProt P21796 1-283) (natural protein)

stoichiometry N [3]: 2
Substance: GST-hERK1 recombinant protein (from UniProt P27361 1-379) (enzyme)
